# Laboratory results reported in the DeepSol protein solubility set.
# Experiment: soluble on expression in E. coli; label from the status in PepcDB or PDB records
row,Sequence,soluble on expression in E. coli
1,MSLKSTDIKIVEAKFSTEEVPFRTPLKFGGRVMDSSVLLNVEVIVETRNGKQGIGIGSMPAGNIWAWPSAVVSPEDSLKAMIEFLKEAVEIANICPEVAHPIDLMYHISAEYHFMAKKLSKRLGLAEEIPELAQLVASSPLDAAIHDGFGRANHINSYNGLSAEYMSHDLTEYLDDQFKGEYLDQYTLRDPKPTLPLYHLVGALDPITEADISERVDDGLPETLGEWIKADGLTHLKIKLSGDNMDWDISRVIAVENEAVKAQGERGQDKWVYSLDFNEKCENVDYVLDFLNKIREQTPAAFDRVQYIEQPTNRDLKANPENKMHEAAKIKPVVIDESLVDYESLLLSRELGYSGVALKACKGQTESLFLGAAAQKFDMFLCVQDLTCCGYSFLHSASLAARIPSIAAIEGNGRQYCPGPNKKWKRSYPGMFNITDGTVKTSELNGDGLGFEGHHHHHH,soluble
2,MDNPTTPIAVVGPTASGKSALGVSLAHHLNGEVVNVDSMQLYKGMDIGTAKLTLEEREGIVHHLLDVWDISETASVARYQSQAIAVVEDIQRRGKTPILVGGSMLYVQSLVDDWQFPPTDPSVRAKWESKLNEVGVEALHALLAQKDPQAASIIELKDPRRTVRALEVIELTGKPFNASQPPKNAPPRWNTQIIGLGTNTEWLNPRIDLRTELMFEKGFVHEVENLVGKGLIADSTAGHAIGYAQVLQHFAGELSVDEMIEHTKIGTRRYVRRQRSWFKRDPRIHWIDASGDTFSMALSLLS,not soluble
3,MQICQNPSCSNPFNPDGNRFCMSCGQSNFGKLLRNRYRVLGLLGEGGFSKTYAAEDADRLDAPCVIKQFFPQIQGTGQRSKAAEFFKEEAFRLYELGENHTQIPRLLAYFEQGSSLYLVQEFIKGLTLLQEVQQEPFNEEKIRQLLIDLLPVLDFVHFHHVIHRDIKPENIIRRDGDGKLVLIDFGGAKQVTQTSIARQATAIYTLGYAPTEQMAGFACHASDLYALGVTCVRLLTQCLPQQNLYGHIDDGLYDPMNGKWLWQEYLQDRGITISENLSQILDKLLKHLPSERYQSAAEVLHDLQVFTAIVEETQILPNTQTTLVPLAPATQRTKRPLPPLQTFEYEVVTVDTAGRIVNRDRTNTQILVEQLNKDITLEMLSIPGGAYLMGSPNFEGDADERPQHQVAIAPFFMGKYPVTQAQWRAVAGLPKIKQALNPYPSKYKGQNRPVENVSWHEVLEFCARLSEKTGREYRLPSEAEWEYACRAGTTTSFHFGETITPDLANFSDSDIHNIEAKTRYRKETTDVGNFRVANAFGLYDMHGLVWEWCADPWHNNYNGAPTDGSVWEAGGDIYRRVLRGGSWNFGAELCRSASRSWNESDGGLRICGFRVVFSAGLEHHHHHH,soluble
4,MSLNVGYLCTYTPKELIDAAGFTPIRIFAGDMQISLATAHIQSYACSQARGSLERALRGELDVQAVVFTRCCDTLMRLADIWERNTDMRVYNIEFPTRVEERSKDYYFNELKDFVKVLEEWGGGVTLESLRESLKLYHELEEKLKRLFSLKPDYEAAKRVQEMNVREAIKFVDERLRKAESEGGKPRVLITGSVCPFVEVYTLFEEAGFALKDDICTGTRFFTFNTPPREIGSVDEGLRFLVDKYFEKAPCPTKHFPNDDRFKYILEMAKDCDGVVFLLLKFCEPHFYDYPQLKERLEEMGKKVLLLELEFPIASIEQLRTRIEAFYEVIAEGGSHHHHHH,soluble
5,MAMLAYQVSKSIEINKSQSEIIDYLKDFKNWPEWSPWIILEPSCELTYSDNQGHVGAGYQWNGQRIGTGAVVLESTQEHRLDMELHFFRPIKSHGKVTLIVTPSQDGCTVEWQMQSRVPWYLFFLKTMFKSMVEMDYDRGLKMLKSQLETGQILSQLSEIGTRHQDLIHYVGLQGSGTIPELGPIMKKQTQRLYELMQKESLPVSGELFCYYLSMDMKLGHFEFVTCLPVSEMVEVPNGFVFGTIPACETFVIEHKGDYQFLGNAWSLGMNLTRQNGIKVKSKPLGIERYLNNPNETPKAGLRTEVILFKKLEHHHHHH,soluble
6,GPGSMLKCSLCYLASKVTAGNAKNQAGHPRRRAKLFHVVPGTPVTPFEKLKEQRRRFGQDRHSRLPEYRPGNNVRMDPNTYTLYATKKGVMTIRESRINPKYKWLDVEPDIQKVYRSRELRRALQEREMASMAVGENSNYRVELDLLLEPDWRERVMHVPKATERFKDPNLFTRGVVNELSPLDRYSYT,not soluble
7,MLEQMGIAAKQASYKLAQLSSREKNRVLEKIADELEAQSEIILNANAQDVADARANGLSEAMLDRLALTPARLKGIADDVRQVCNLADPVGQVIDGGVLDSGLRLERRRVPLGVIGVIYEARPNVTVDVASLCLKTGNAVILRGGKETCRTNAATVAVIQDALKSCGLPAGAVQAIDNPDRALVSEMLRMDKYIDMLIPRGGAGLHKLCREQSTIPVITGGIGVCHIYVDESVEIAEALKVIVNAKTQRPSTCNTVETLLVNKNIADSFLPALSKQMAESGVTLHADAAALAQLQAGPAKVVAVKAEEYDDEFLSLDLNVKIVSDLDDAIAHIREHGTQHSDAILTRDMRNAQRFVNEVDSSAVYVNASTRFTDGGQFGLGAEVAVSTQKLHARGPMGLEALTTYKWIGIGDYTIRA,soluble
8,GPGSMSDSTTEKIFLLYATFSEIHRELLMEHHKTHPEHKTYMDILNYLREEEGVKQSLLKKNSNWEILQQKKLTAIENVAISVKREIPGGFSNSAIVRNALPHAVVLSGFSTSSQTNENWVRLHMQLLDEQTKLVREYNDKRFLNASVKRMIVLCHEHGCDGVAGRLKREFGVSDKMHCWSMLDAYTTMSQWGLIDQLGDVKNKNKPVIGASAFINTLLACGRQEQAKQYIHKIPQIEQRMEYYLLCSDWEGAGADCRRHGEPDLLTQLKDRVKGDASAVQLIDKGWNSVQESGAVKLAKLFA,not soluble
9,MTEAEILRLIRRVSGISQQADEQTTQPDSVTAENYARVVAEVMRRDGIQLNDADMRDIRIRVLEMLAYNRRVELYREKEKITYHWKKPERLRR,not soluble
10,MSLALGSYIERRGELETYFDRTAADTWAKLTSDAPVSGIRATVRAGRDEMRNTLLSWLPADMTGTRLLDAGCGTGALSIEAARRGAKIVAIDLSPTLVAVARERLPDDIDPAAIDFRSGDMLDPELGEFDFVVAMDSLIHYLPHDICRMLATLASRTRQSMAVTFAPKTPLLTLMHFVGGFFPRADRAPAIEPISEKTLRGLVAEDPLLAQWQPGRTHRVSSGFYTSQALEMVREGHHHHHH,soluble
11,SMSMKATRLAIPDVILFEPRVFGDDRGFFFESYNQRAFEEACGHPVSFVQDNHSRSARGVLRGLHYQIRQAQGKLVRATLGEVFDVAVDLRRGSPTFGQWVGERLSAENKRQMWIPAGFAHGFVVLSEYAEFLYKTTDFWAPEHERCIVWNDPELKIDWPLQDAPLLSEKDRQGKAFADADCFP,soluble
12,MGSDKIHHHHHHSCVNDLDTVPLDKDELVSDVVFGNEPLAYEQSLAKIYAGMAIGGNSGGDSDQDVVGIDGGSQASFLRVLWNMQDLPSDIAHCAWNDPGIPEFNHISWGASSPWIKGSYYRLFYQINVANAYLRETAEDKLDARGCDASLKASIKTWRAEARFLRALSYEYALDLYRNVPFVDENSPIGSIPPKQIMAADLFNWIEKELTECVEDMLEPTVGYSQDYGHANKAAAWALLSRLYLNAETYVGQNKYTECITYAKKVIETGYQLEPVYVDMFKADNHLSNEMIFPVRYEGDQTMTWGGMTAFLCWGATATQEEVNAKGAWQGVRAKSSLYNLFLKESGSDADTRKAMLRTDLTTSLEIIDENTFQNNGIPVTKYFNVNKDGTLPPSKEAYVDFPLFRLGEIYLTYAEAVLRGGQGGDRATALRYVNDLRKRAYSDKTLAPISDSDLTLNFIIDERGREFFFEGQRRTDLVRFGLFTTAGYVWPWKGGTAKGKAVENFYNVFPIPSDDIGSNTNLKQNEGY,not soluble
13,YQWLPNIGSGEAGADWGLRLTSRDMGKFGLMWLNKGQYNGTKIVGEEWLNELRKSKFYSYEMGYGLHFWQVSNVENGVAAVGIGEQYIVAIPNKNAVIVTTAGNYETRSRPVLTLIQQLSSLL,not soluble
14,MGNKICQFKLVLLGESAVGKSSLVLRFVKGQFHEFQESTIGAAFLTQTVCLDDTTVKFEIWDTAGQERYHSLAPMYYRGAQAAIVVYDITNEESFARAKNWVKELQRQASPNIVIALSGNKADLANKRAVDFQEAQSYADDNSLLFMETSAKTSMNVNEIFMAIAKKLPKN,soluble
15,MPYRNCWSKIMKKLINDVQDVLDEQLAGLAKAHPSLTLHQDPVYVTRADAPVAGKVALLSGGGSGHEPMHCGYIGQGMLSGACPGEIFTSPTPDKIFECAMQVDGGEGVLLIIKNYTGDILNFETATELLHDSGVKVTTVVIDDDVAVKDSLYTAGRRGVANTVLIEKLVGAAAERGDSLDACAELGRKLNNQGHSIGIALGACTVPAAGKPSFTLADNEMEFGVGIHGEPGIDRRPFSSLDQTVDEMFDTLLVNGSYHRTLRFWDYQQGSWQEEQQTKQPLQSGDRVIALVNNLGATPLSELYGVYNRLTTRCQQAGLTIERNLIGAYCTSLDMTGFSITLLKVDDETLALWDAPVHTPALNWGK,soluble
16,MAQQTNVAGQKTEKQRKAPFRADHVGSLLRSVPVKEARQKKAAGEMTAEQLRDIENQEITRIVEKQKEIGLDVVTDGEFRRSWWHYDFLEGLDGVEPFIPAEGIQFHNTKTKARSIKVTGKLDFTSHPALGDYQFLHEIAGNATPKLTIPSPNMLFFGEKADKGIYDDQEEYFHDMAQAYKKAIKAFYDAGCRYLQLDDTSWSLFFEDKGREVVRALGGDPETLPAIFAKTINDAVADRPDDLTITMHICRGNFRSTWAASGGYDAVAETILDGLNLDGLFLEYDDDRSGNFDPLRFVKRKDLQIVLGLITSKYGELENPEDVNAVSMKPRVLSAWTSYALEHHHHHH,not soluble
17,LIIGVTGCPAGIAHTYLAAEALEKGAAALGFEIKVETNGSIGVKNSPSAEEIERAEAIVVACDKQVDMARFAGKRLIKTNVKAPIRDAQKLINEALRAPTY,not soluble
18,MVVCSVQRLLLNFDFSENRSRSYHFTMDGKQIATTIPPVFLFNVLESVSGTDDRVLEHHHHHH,not soluble
19,GPGSMNPATKDVASAEEESPVVCTAKQYIFDLHSYAWKESDCLIRIPRPHKGMGHGGMRVCYAVEDVDEEGAGTPMVAKMFRRNISNVVEKDYFNEGAAQCMCEEFANNFNRIHLTNIRKPNISFLQCYVVRIPRDSIPAASQRKRTGFFSYKTQDTGEVMFVMEPMLSGKFTKYNSNYGETYREDKKAALTSSEARRRTEIFEAAETFSHFTLVESGGSMLVCDLQGVNDFFTDPQIHTEDGKGLGMGNMGQEGIDKWIEKHECNDICRALGLQPLLGAVPSSTACAREENMYLGLRAQLQSQNPVRLRDLVPLTKPLEEMTEAERIEYALKVSRLTD,soluble
20,SGGCTALVAVSLQGKLYMANAGDSRAILVRRDEIRPLSFEFTPETERQRIQQLAFVYPELLAGEFTRLEFPRRLKGDDLGQKVLFRDHHMSGWSYKRVEKSDLKYPLIHGQGRQARLLGTLAVSRGLGDHQLRVLDTNIQLKPFLLSVPQVTVLDVDQLELQEDDVVVMATDGLWDVLSNEQVAWLVRSFLPGNQEDPHRFSKLAQMLIHSTQGKEDSLTEEGQVSYDDVSVFVIPLHSQGQESSDH,soluble
21,MWTEQHVKEIDSIIRKKEDEQLSLPIMEQKLQINNRRYLGSKYKLLEFICKVVRENCTSVSSVADIFGGTGVVADRFNKEGKDIIVNDILYSNYLAYLTWFSNEKVNITKIEKLIKFFNESEPTEDNYVSINFGGTYFTEYNARKIGYVREEIEKMSDELNAREKAILITSLIYAMDKVANTVGHYDAYRRKLDSIKEIKLLMPEFNDGLNNGNKIFKEDANELVRKISADLIYIDTPYNSRQYGDAYHLLENIAEWEKPDLVGVAKKMIDRSHIKSDYCTMKATSAFADLISNIKGKYILVSYNNMAQKGVGRSNAKISSEEIVEILETRGTVEIFETNFQAYTTGKTNIDDHKEILYLCEVSR,not soluble
